According to patent US20160324958A1 (ALPHA O PEPTIDES, published 2016):

B1: PD52-2i88-PANDORA-D2-D1-ori : PD52-2i88-PANDORA-Noro co-assembled nanoparticle (5:55) (other)
chain 1: MGHHHHHHASGSWEKWNAKWDEWKNDWNDWRRDWQAWVDDWAYWTLTWKYGELYSKLAELERRNEELERRLEELARFVAALSMRLAELERRNEELARGSGSSARLSDLEANNAVRGESKITVNGAEYTANATGDRITLAGRTMFIDRTASGVSTLINEDAAAARRSTANPLASIDSALSRVDAVRSSLGAIQNRFDSAIGSKNANDGISIAQTTEGALNEINNNLQRVRELSVQATNGTNSDSDLRSIQDEIQQRLEEIDRVSNQTQFNGVKVLSQDNQMKIQVGAKDGETITIDLQKIDVKSLGLDGFNVNGPREATVGDLRSSFRNVTGYDTYAAGADRYRVDINSGAV
chain 2: MGHHHHHHASGSWEKWNAKWDEWKNDWNDWRRDWQAWVDDWAYWTLTWKYGELYSKLAELERRNEELERRLEELARFVAALSMRLAELERRNEELARGSGSTVEQKTRPFTLPNLPLSSLSNSRAPLPISSMGISPDNVQSVQFQNGRCTLDGRLVGTTPVSLSHVAKIRGTSNGTVINLTELDGTPFHPFEGPAPIGFPDLGGCDWHINMTQFGHSSQTQYDVDTTPDTFVPHLGSIQANGIGSGNYVGVLSWISPPSHPSGSQVDLWKIPNYGSSITEATHLAPSVYPPGFGEVLVFFMSKMPGPGAYNLPCLLPQEYISHLASEQAPTVGEAALLHYVDPDTGRNLGEFKAYPDGFLTCVPNGASSGPQQLPINGVFVFVSWVSRFYQLKPVGTAS
B2: LONG-D2-D1-ori self-assembling protein nanoparticle (other)
chain: MGHHHHHHASWRWDGGLVPRGSWQTWNARWDQWSNDWNAWRSDWQAWRDDWARWRALWMGGRLLLRLEELERRLEELERRLEELERFVAAWTLRVRALERRLEELERRIEEIARGSGSSARLSDLEANNAVKGESKITVNGAEYTANATGDKITLAGKTMFIDKTASGVSTLINEDAAAAKKSTANPLASIDSALSKVDAVRSSLGAIQNRFDSAIGSRNANDGISIAQTTEGALNEINNNLQRVRELSVQATNGTNSDSDLKSIQDEIQQRLEEIDRVSNQTQFNGVKVLSQDNQMKIQVGANDGETITIDLQKIDVKSLGLDGFNVNGPKEATVGDLKSSFKNVTGYDTYAAGADKYRVDINSGAV
B3: T81c-WRW-8RRVRA-D0-D1 : T81c-WRW-8RRVRA-T1BT* co-assembled nanoparticle (12:48) (other)
chain 1: MGHHHHHHASWRWDGGLVPRGSWQTWNARWDQWSNDWNAWRSDWQAWRDDWARWRALWMGGRLLLRLEELERRLEELERRLEELERFVAAWTLRVRALERRLEELERRIEEIARGMAQVINTNSLSLLTQNNLNKSQSALGTAIERLSSGLRINSAKDDAAGQAIANRFTANIKGLTQASRNANDGISIAQTTEGALNEINNNLQRVRELAVQSANSTNSQSDLDSIQAEITQRLNEIDRVSGQTQFNGVKVLAQDNTLTIQVGANDGETIDIDLKQINSQTLGLDSLNVHGAPVDPASPWTENPLQKIDAALAQVDALRSDLGAVQNRFNSAITNLGNTVNNLSEARSRIEDSDYATEVSNMSRAQILQQAGTSVLAQANQVPQNVLSLLR
chain 2: MGHHHHHHASEYLNKIQNSLSTEWSPSSVTGSWQTWNARWDQWSNDWNAWRSDWQAWRDDWARWRALWMGGRLLLRLEELERRLEELERRLEELERFVAAWTLRVRALERRLEELERRIEEIARGSGDPNANPNVDPNANPNVNANPNANPNANP

How the values were obtained:
[1] = biological target: Toll-like receptor 5 (TLR5) on TLR5/SEAPorter HEK 293 cells (IMGENEX, Cat. No. IML-105) (UniProt O60602); assay: cell-based or functional assay
Toll-like receptor 5 (TLR5) on TLR5/SEAPorter HEK 293 cells (IMGENEX, Cat. No. IML-105) (UniProt O60602), sequence (O60602 21-858 limits assumed): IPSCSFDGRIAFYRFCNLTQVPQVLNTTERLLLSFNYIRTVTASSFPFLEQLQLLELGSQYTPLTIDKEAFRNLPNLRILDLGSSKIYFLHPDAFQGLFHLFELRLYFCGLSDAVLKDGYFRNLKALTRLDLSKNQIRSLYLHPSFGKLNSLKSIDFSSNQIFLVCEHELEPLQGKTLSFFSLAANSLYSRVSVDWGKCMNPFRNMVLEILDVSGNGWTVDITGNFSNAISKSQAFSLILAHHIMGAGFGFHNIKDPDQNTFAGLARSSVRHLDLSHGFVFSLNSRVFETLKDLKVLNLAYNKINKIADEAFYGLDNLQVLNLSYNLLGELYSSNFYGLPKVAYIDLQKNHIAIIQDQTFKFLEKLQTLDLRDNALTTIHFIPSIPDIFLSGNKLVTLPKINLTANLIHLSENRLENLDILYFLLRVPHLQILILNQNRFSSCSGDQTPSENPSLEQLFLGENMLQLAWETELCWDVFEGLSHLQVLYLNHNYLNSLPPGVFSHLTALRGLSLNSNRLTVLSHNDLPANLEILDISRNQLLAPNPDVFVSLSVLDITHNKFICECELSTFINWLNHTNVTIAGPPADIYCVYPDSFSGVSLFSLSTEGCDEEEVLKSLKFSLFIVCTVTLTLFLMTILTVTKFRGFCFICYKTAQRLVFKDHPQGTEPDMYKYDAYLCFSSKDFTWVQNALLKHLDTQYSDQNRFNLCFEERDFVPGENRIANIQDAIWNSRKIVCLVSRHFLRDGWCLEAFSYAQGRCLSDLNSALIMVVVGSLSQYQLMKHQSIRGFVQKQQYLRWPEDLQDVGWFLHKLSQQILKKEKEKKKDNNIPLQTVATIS

[2] = biological target: Toll-like receptor 5 (TLR5) on TLR5/SEAPorter HEK 293 cells (IMGENEX, Cat. No. IML-105) (UniProt O60602 21-858); assay: cell-based or functional assay
Toll-like receptor 5 (TLR5) on TLR5/SEAPorter HEK 293 cells (IMGENEX, Cat. No. IML-105) (UniProt O60602 21-858), sequence (O60602 21-858 limits assumed): as above

| Molecule | EC50 of TLR5 agonist activity (SEAP reporter, TLR5/SEAPorter HEK 293 cells) [1] [ng/mL] | EC50 of TLR5 agonist activity (SEAP reporter, TLR5/SEAPorter HEK 293 cells) [2] [ng/mL] | TLR5 activation relative to native flagellin [2] [fold] |
| --- | --- | --- | --- |
| flagellin from Salmonella typhimurium (IMGENEX flagellin, Cat. No. IMG-2205) (from UniProt P06179 2-495) (ligand) | 0.29 | – | – |
| B1 | – | 17.7 | – |
| B2 | – | 12.6 | – |
| B3 | – | 0.0901 | ~3 |
